In this assay the target is GST-HA-ATG16L1-231–607 produced in yeast (extended WDD construct that includes residue 300), Q676U5. Kind of assay: peptide microarray. As to conditions: chain shown with the change, probe purified from yeast, mean ± s.d., n=9 replicas, read off a plot.
Sequence of GST-HA-ATG16L1-231–607 produced in yeast (extended WDD construct that includes residue 300), Q676U5 (Q676U5 231-607): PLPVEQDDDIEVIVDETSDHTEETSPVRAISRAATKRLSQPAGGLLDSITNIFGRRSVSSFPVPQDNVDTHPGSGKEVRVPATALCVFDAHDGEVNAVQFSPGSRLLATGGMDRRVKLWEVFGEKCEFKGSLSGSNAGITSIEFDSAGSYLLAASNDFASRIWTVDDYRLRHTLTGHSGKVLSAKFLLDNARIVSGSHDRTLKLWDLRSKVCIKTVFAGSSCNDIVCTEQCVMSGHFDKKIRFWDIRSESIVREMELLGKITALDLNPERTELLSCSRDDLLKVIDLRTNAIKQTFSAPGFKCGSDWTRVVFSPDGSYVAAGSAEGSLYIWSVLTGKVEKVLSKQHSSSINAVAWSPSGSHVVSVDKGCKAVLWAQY

Regarding TAVEQAVPSAKLSIAGDAE, the percent of parent (parent: est. 100, scale: % of WT peptide) is 12. Under “parent: est. 1100”, the response is 200 a.u. (OD635).

The values above are taken from PMC4899871.
